Assays:
Experiment in all cases: co-expression in COS cells
ζ = target: T1, ζ (UniProt P20963 22-164)
T1 construct: also called CD3ζ

DAP10 = target: T2, DAP10 (UniProt Q9UBK5 19-93)
T2 sequence (looked up): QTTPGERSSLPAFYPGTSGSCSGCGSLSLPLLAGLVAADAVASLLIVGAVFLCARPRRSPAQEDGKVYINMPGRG

DAP12 = DAP12 (UniProt O43914 22-113)
FcERIγ = target: T3, FcERIγ (UniProt P30273 19-86)
T3 sequence (looked up): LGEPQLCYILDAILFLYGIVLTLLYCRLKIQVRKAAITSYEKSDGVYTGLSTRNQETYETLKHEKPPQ

Measured: binding result

T1 sequence (P20963 22-164 limits assumed): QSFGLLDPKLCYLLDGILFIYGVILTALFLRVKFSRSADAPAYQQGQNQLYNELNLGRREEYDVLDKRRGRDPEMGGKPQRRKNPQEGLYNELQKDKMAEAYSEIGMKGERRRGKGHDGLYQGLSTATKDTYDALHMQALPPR
Chain of DAP12 (O43914 22-113 limits assumed): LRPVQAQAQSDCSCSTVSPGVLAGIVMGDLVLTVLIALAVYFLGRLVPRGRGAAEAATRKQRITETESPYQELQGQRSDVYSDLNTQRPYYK

B1: CD160-TM, Flag-tagged, expressed by transfected cells (receptor)
chain: GCINITSSASQEGTRLNLICTVWHKKEEAEGFVVFLCKDRSGDCSPETSLKQLRLKRDPGIDGVGEISSQLMFTISQVTPLHSGTYQCCARSQKSGIRLQGHFFSILFTETGNYTVTGLKQRQHLEFSHNEGTLSSGFLQEKVWVMLVTSLVALQGMSKRAVSTPSNEGAIIFLPPWLFSRRRRLERMSRGREKCYSSPGYPQESSNQFH
notes: Expressed in Jurkat cells from pEF6; Also used here for the co-expression in COS cells, where the construct is not described; also called CD160-TM transfectants; CD160-TM-transfected cells; not shown: Flag tag coded by the reverse oligonucleotide (C-terminal)
no binding: ζ | DAP10 | DAP12 | FcERIγ
